What was measured:
She2p = She2p (Saccharomyces cerevisiae, UniProt P36068 1-246); assay: filter binding; +++ reference; EMSA: 20 mM HEPES pH 7.8, 200 mM NaCl, 2 mM MgCl2, 2 mM DTT, 4% glycerol, 30 or 100 ug/ml yeast tRNA, 5 nM RNA, 20 C; filter binding: 20 mM HEPES pH 7.4-7.5 (7.9 with She3p), 150 mM NaCl, 2 mM MgCl2, 2 mM DTT, 30 ug/ml yeast tRNA, 0.5 nM RNA; pull-down: HNMD buffer, 4 C; conditions: protein: recombinant; tags: GST tag (PreScission-cleaved); chain copies: 4; label: 32P; stem-loop
Chain of She2p (P36068 whole entry): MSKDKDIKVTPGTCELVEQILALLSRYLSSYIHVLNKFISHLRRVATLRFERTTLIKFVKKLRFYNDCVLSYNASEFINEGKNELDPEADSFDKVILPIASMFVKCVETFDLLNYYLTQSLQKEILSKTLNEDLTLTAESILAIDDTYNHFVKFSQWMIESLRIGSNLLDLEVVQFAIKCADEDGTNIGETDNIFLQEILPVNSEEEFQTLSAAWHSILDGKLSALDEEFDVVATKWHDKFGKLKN

She2p (ΔC);She3p = She2p (ΔC);She3p (Saccharomyces cerevisiae;Saccharomyces …, UniProt P36068;P38272 1-240;1-425, |); assay: EMSA; She3p 25 nM; at least 25 nM She2p(ΔC) required; EMSA: 20 mM HEPES pH 7.8, 200 mM NaCl, 2 mM MgCl2, 2 mM DTT, 4% glycerol, 30 or 100 ug/ml yeast tRNA, 5 nM RNA, 20 C; filter binding: 20 mM HEPES pH 7.4-7.5 (7.9 with She3p), 150 mM NaCl, 2 mM MgCl2, 2 mM DTT, 30 ug/ml yeast tRNA, 0.5 nM RNA; pull-down: HNMD buffer, 4 C; conditions: protein: recombinant;recombinant; tags: GST tag (PreScission-cleaved);C-terminal His6; label: 32P; stem-loop
Chain of She2p (ΔC);She3p (P36068 1-240, stated change not applied, one chain of several): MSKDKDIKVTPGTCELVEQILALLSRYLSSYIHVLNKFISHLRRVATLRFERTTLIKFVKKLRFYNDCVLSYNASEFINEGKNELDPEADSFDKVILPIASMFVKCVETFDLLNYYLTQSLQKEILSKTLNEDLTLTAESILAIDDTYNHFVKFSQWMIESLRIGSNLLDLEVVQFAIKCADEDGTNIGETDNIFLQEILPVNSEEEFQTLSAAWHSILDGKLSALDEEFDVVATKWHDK

Puf6p = Puf6p (Saccharomyces cerevisiae, UniProt Q04373 2-656); assay: EMSA; EMSA: 20 mM HEPES pH 7.8, 200 mM NaCl, 2 mM MgCl2, 2 mM DTT, 4% glycerol, 30 or 100 ug/ml yeast tRNA, 5 nM RNA, 20 C; filter binding: 20 mM HEPES pH 7.4-7.5 (7.9 with She3p), 150 mM NaCl, 2 mM MgCl2, 2 mM DTT, 30 ug/ml yeast tRNA, 0.5 nM RNA; pull-down: HNMD buffer, 4 C; conditions: protein: recombinant; tags: GST tag (cleaved for EMSA; retained in GST pull-downs); label: 32P; stem-loop
Chain of Puf6p (Q04373 2-656): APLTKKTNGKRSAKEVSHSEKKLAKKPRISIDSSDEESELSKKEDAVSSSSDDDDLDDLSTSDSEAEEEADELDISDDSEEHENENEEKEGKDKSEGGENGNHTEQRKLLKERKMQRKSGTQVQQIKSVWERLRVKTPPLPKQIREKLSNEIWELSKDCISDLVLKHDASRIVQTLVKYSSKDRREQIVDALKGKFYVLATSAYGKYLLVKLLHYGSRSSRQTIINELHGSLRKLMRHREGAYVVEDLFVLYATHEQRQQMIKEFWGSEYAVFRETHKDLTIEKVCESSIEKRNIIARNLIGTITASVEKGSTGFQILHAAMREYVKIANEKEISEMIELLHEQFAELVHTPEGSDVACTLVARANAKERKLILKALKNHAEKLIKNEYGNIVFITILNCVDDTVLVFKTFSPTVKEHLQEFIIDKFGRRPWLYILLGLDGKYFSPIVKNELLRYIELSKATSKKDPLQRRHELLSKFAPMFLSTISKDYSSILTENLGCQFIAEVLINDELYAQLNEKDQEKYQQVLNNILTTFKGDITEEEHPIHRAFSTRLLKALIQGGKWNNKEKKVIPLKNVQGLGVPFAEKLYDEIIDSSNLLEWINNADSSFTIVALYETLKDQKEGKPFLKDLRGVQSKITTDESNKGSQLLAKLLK

She2p;She3p = She2p;She3p (Saccharomyces cerevisiae;Saccharomyces …, UniProt P36068;P38272 1-246;1-425, |); assay: EMSA; She3p constant 25 nM, She2p varied; EMSA: 20 mM HEPES pH 7.8, 200 mM NaCl, 2 mM MgCl2, 2 mM DTT, 4% glycerol, 30 or 100 ug/ml yeast tRNA, 5 nM RNA, 20 C; filter binding: 20 mM HEPES pH 7.4-7.5 (7.9 with She3p), 150 mM NaCl, 2 mM MgCl2, 2 mM DTT, 30 ug/ml yeast tRNA, 0.5 nM RNA; pull-down: HNMD buffer, 4 C; conditions: protein: recombinant;recombinant; tags: GST tag (PreScission-cleaved);C-terminal His6; chain copies: 4;2; label: 32P; stem-loop
Chain of She2p;She3p (P36068 whole entry, one chain of several): as the sequence (P36068 whole entry) above

[1] = biological target: She2p (E183A D184A G185A);She3p (Saccharomyces cerevisiae;Saccharomyces …, UniProt P36068;P38272 1-246;1-425, E183A;D184A;G185A|); assay: EMSA; synergism +++; EMSA: 20 mM HEPES pH 7.8, 200 mM NaCl, 2 mM MgCl2, 2 mM DTT, 4% glycerol, 30 or 100 ug/ml yeast tRNA, 5 nM RNA, 20 C; filter binding: 20 mM HEPES pH 7.4-7.5 (7.9 with She3p), 150 mM NaCl, 2 mM MgCl2, 2 mM DTT, 30 ug/ml yeast tRNA, 0.5 nM RNA; pull-down: HNMD buffer, 4 C; conditions: protein: recombinant;recombinant; tags: GST tag (PreScission-cleaved);C-terminal His6; chain copies: 4;2; label: 32P; stem-loop
Chain of She2p (E183A D184A G185A);She3p (P36068 whole entry E183A/D184A/G185A, one chain of several): as the sequence (P36068 whole entry) above, with E183A, D184A, G185A counted along it

She2p;She3p (R341E) = She2p;She3p (R341E) (Saccharomyces cerevisiae;Saccharomyces …, UniProt P36068;P38272 1-246;1-425, |R341E); assay: as above; conditions: protein: recombinant;recombinant; tags: GST tag (PreScission-cleaved);C-terminal His6; chain copies: 4;2; label: 32P; stem-loop
Chain of She2p;She3p (R341E) (P36068 whole entry, stated change not applied, one chain of several): as the sequence (P36068 whole entry) above

[2] = biological target: She2p (T191A D192A);She3p (Saccharomyces cerevisiae;Saccharomyces …, UniProt P36068;P38272 1-246;1-425, T191A;D192A|); assay: as above; conditions: protein: recombinant;recombinant; tags: GST tag (PreScission-cleaved);C-terminal His6; chain copies: 4;2; label: 32P; stem-loop
Chain of She2p (T191A D192A);She3p (P36068 whole entry T191A/D192A, one chain of several): as the sequence (P36068 whole entry) above, with T191A, D192A counted along it

[3] = biological target: She2p;She3p (S343E S361E) (Saccharomyces cerevisiae;Saccharomyces …, UniProt P36068;P38272 1-246;1-425, |S343E;S361E); assay: as above; conditions: protein: recombinant;recombinant; tags: GST tag (PreScission-cleaved);C-terminal His6; chain copies: 4;2; label: 32P; stem-loop
Chain of She2p;She3p (S343E S361E) (P36068 whole entry, stated change not applied, one chain of several): as the sequence (P36068 whole entry) above

B1: ASH1 E3-118 (structured_RNA)
RNA: GAGACAGUAGAGAAUUGAUACAUGGAUAACUGAAUCUCUUUCAACUAAUAAGAGACAUUAUCACGAAACAAUUGUACAUUUCUCUCCUUGUCUGUGCUAAAUAAACUACAAAUAAAAA
In the case of B1, the binding result (She2p) is reported as “binds”, the binding signal (She2p (ΔC);She3p) is reported as roughly 5 fold reduced and the binding result (Puf6p) is reported as “binds”. For the same binder, the Kd (She2p;She3p) was roughly 25 nM, the binding result [1] was “binds” and the binding result (She2p;She3p (R341E)) was “binds”. B1: binds [2]; binds [3].

From paper PMC3079584, “A Cytoplasmic Complex Mediates Specific mRNA Recognition and Localization in Yeast”
